Patent US20250171562A1 (ALK ABELL, published 2025)
Blank lines part the entries; values can stand above or below the binder they belong to.

Target: T1, recombinant human IgE (human, UniProt P01854-1 1-428)
T1 construct: made in-house (ALK); preloaded on immobilised FcεRIα in the displacement ELISA
Assay: IgE-FcεRIα displacement ELISA
Method in brief: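 sdAbs at pM–μM were incubated 1 h on preformed complexes of 13 ng/ml recombinant human IgE with avi-tag-biotinylated human FcεRIα captured on streptavidin.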

T1 sequence (P01854 other isoform, or with tags, fused parts or gaps): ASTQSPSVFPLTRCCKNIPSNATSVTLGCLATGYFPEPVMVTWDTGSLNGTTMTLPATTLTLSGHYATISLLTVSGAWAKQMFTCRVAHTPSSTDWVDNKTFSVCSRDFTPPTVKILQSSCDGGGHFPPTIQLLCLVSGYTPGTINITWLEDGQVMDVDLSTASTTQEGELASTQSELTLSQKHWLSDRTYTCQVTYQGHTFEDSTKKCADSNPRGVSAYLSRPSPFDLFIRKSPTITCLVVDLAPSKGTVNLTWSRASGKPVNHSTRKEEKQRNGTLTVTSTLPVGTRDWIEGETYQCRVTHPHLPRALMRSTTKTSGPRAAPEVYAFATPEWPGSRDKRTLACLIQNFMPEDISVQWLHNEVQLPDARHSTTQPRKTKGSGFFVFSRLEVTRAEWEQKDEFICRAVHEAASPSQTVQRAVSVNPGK

EC50: 2.1 nM
Max effect: > 95%
B1: CIgG4B2A1(G4S)3 (Fc fusion)
chain 1: GPPCPPCPAPEFLGGPSVFLFPPKPKDTLMISRTPEVTCVVVDVSQEDPEVQFNWYVDGVEVHNAKTKPREEQFNSTYRVVSVLTVLHQDWLNGKEYKCKVSNKGLPSSIEKTISKAKGQPREPQVYTLPPCQEEMTKNQVSLWCLVKGFYPSDIAVEWESNGQPENNYKTTPPVLDSDGSFFLYSRLTVDKSRWQEGNVFSCSVMHEALHNHYTQKSLSLSLGKGGGGSGGGGSGGGGSQVQLVESGGGLVQAGGSLRLSCAVFGSTFSNNVADWYRQAPGKQRELVARISASGATREYGDSVKGRFTISRDDAKNTMYLQMNNLKPEDTAVYRCHKIEWEDLSRKDYWGQGTQVTVS
chain 2: GPPCPPCPAPEFLGGPSVFLFPPKPKDTLMISRTPEVTCVVVDVSQEDPEVQFNWYVDGVEVHNAKTKPREEQFNSTYRVVSVLTVLHQDWLNGKEYKCKVSNKGLPSSIEKTISKAKGQPREPQVCTLPPSQEEMTKNQVSLSCAVKGFYPSDIAVEWESNGQPENNYKTTPPVLDSDGSFFLVSRLTVDKSRWQEGNVFSCSVMHEALHNHYTQKSLSLSLGKGGGGSGGGGSGGGGSEVQLLESGGGLVQPGGSLRLSCAASGFTFGNYDMAWVRQAPGKRPEWVSSIDTGGDITHYADSVKGRFTISRDNAKNTLYLQMNSLRPEDTAVYWCATDEEYALGPNEFDYYGQGTLVTVSS

EC50: 0.8 nM
Max effect: > 95%
B2: CIgG4B2A1(G4S)1 (Fc fusion)
chain 1: GPPCPPCPAPEFLGGPSVFLFPPKPKDTLMISRTPEVTCVVVDVSQEDPEVQFNWYVDGVEVHNAKTKPREEQFNSTYRVVSVLTVLHQDWLNGKEYKCKVSNKGLPSSIEKTISKAKGQPREPQVYTLPPCQEEMTKNQVSLWCLVKGFYPSDIAVEWESNGQPENNYKTTPPVLDSDGSFFLYSRLTVDKSRWQEGNVFSCSVMHEALHNHYTQKSLSLSLGKGGGGSQVQLVESGGGLVQAGGSLRLSCAVFGSTFSNNVADWYRQAPGKQRELVARISASGATREYGDSVKGRFTISRDDAKNTMYLQMNNLKPEDTAVYRCHKIEWEDLSRKDYWGQGTQVTVS
chain 2: GPPCPPCPAPEFLGGPSVFLFPPKPKDTLMISRTPEVTCVVVDVSQEDPEVQFNWYVDGVEVHNAKTKPREEQFNSTYRVVSVLTVLHQDWLNGKEYKCKVSNKGLPSSIEKTISKAKGQPREPQVCTLPPSQEEMTKNQVSLSCAVKGFYPSDIAVEWESNGQPENNYKTTPPVLDSDGSFFLVSRLTVDKSRWQEGNVFSCSVMHEALHNHYTQKSLSLSLGKGGGGSEVQLLESGGGLVQPGGSLRLSCAASGFTFGNYDMAWVRQAPGKRPEWVSSIDTGGDITHYADSVKGRFTISRDNAKNTLYLQMNSLRPEDTAVYWCATDEEYALGPNEFDYYGQGTLVTVSS

Max effect: 45%
B3: CIgG4B3A1(G4S)1 (Fc fusion)
chain 1: GPPCPPCPAPEFLGGPSVFLFPPKPKDTLMISRTPEVTCVVVDVSQEDPEVQFNWYVDGVEVHNAKTKPREEQFNSTYRVVSVLTVLHQDWLNGKEYKCKVSNKGLPSSIEKTISKAKGQPREPQVYTLPPCQEEMTKNQVSLWCLVKGFYPSDIAVEWESNGQPENNYKTTPPVLDSDGSFFLYSRLTVDKSRWQEGNVFSCSVMHEALHNHYTQKSLSLSLGKGGGGSDVQLQESGGGLVQAGGSLRLSCAASGFIFRLAGMSWVRQAPGKGFEWVSGITMDGSTTNYADSVKGRFTISRDNSKNRLYLQMNSLKPEDTAVYYCARGAKGGYNDPRGQGTQVTVS
chain 2: B2 chain 2
notes: also called CIgG4B3A1(GS)1

Max effect: > 95%
B4: NIgG4B2A1(G4S)3 (Fc fusion)
chain 1: QVQLVESGGGLVQAGGSLRLSCAVFGSTFSNNVADWYRQAPGKQRELVARISASGATREYGDSVKGRFTISRDDAKNTMYLQMNNLKPEDTAVYRCHKIEWEDLSRKDYWGQGTQVTVSGGGGSGGGGSGGGGSGPPCPPCPAPEFLGGPSVFLFPPKPKDTLMISRTPEVTCVVVDVSQEDPEVQFNWYVDGVEVHNAKTKPREEQFNSTYRVVSVLTVLHQDWLNGKEYKCKVSNKGLPSSIEKTISKAKGQPREPQVYTLPPCQEEMTKNQVSLWCLVKGFYPSDIAVEWESNGQPENNYKTTPPVLDSDGSFFLYSRLTVDKSRWQEGNVFSCSVMHEALHNHYTQKSLSLSLGK
chain 2: EVQLLESGGGLVQPGGSLRLSCAASGFTFGNYDMAWVRQAPGKRPEWVSSIDTGGDITHYADSVKGRFTISRDNAKNTLYLQMNSLRPEDTAVYWCATDEEYALGPNEFDYYGQGTLVTVSSGGGGSGGGGSGGGGSGPPCPPCPAPEFLGGPSVFLFPPKPKDTLMISRTPEVTCVVVDVSQEDPEVQFNWYVDGVEVHNAKTKPREEQFNSTYRVVSVLTVLHQDWLNGKEYKCKVSNKGLPSSIEKTISKAKGQPREPQVCTLPPSQEEMTKNQVSLSCAVKGFYPSDIAVEWESNGQPENNYKTTPPVLDSDGSFFLVSRLTVDKSRWQEGNVFSCSVMHEALHNHYTQKSLSLSLGK

EC50: 130 nM
Max effect: 70%
B5: CIgG4B2A1(RS) (Fc fusion)
chain 1: GPPCPPCPAPEFLGGPSVFLFPPKPKDTLMISRTPEVTCVVVDVSQEDPEVQFNWYVDGVEVHNAKTKPREEQFNSTYRVVSVLTVLHQDWLNGKEYKCKVSNKGLPSSIEKTISKAKGQPREPQVYTLPPCQEEMTKNQVSLWCLVKGFYPSDIAVEWESNGQPENNYKTTPPVLDSDGSFFLYSRLTVDKSRWQEGNVFSCSVMHEALHNHYTQKSLSLSLGKRSQVQLVESGGGLVQAGGSLRLSCAVFGSTFSNNVADWYRQAPGKQRELVARISASGATREYGDSVKGRFTISRDDAKNTMYLQMNNLKPEDTAVYRCHKIEWEDLSRKDYWGQGTQVTVS
chain 2: GPPCPPCPAPEFLGGPSVFLFPPKPKDTLMISRTPEVTCVVVDVSQEDPEVQFNWYVDGVEVHNAKTKPREEQFNSTYRVVSVLTVLHQDWLNGKEYKCKVSNKGLPSSIEKTISKAKGQPREPQVCTLPPSQEEMTKNQVSLSCAVKGFYPSDIAVEWESNGQPENNYKTTPPVLDSDGSFFLVSRLTVDKSRWQEGNVFSCSVMHEALHNHYTQKSLSLSLGKRSEVQLLESGGGLVQPGGSLRLSCAASGFTFGNYDMAWVRQAPGKRPEWVSSIDTGGDITHYADSVKGRFTISRDNAKNTLYLQMNSLRPEDTAVYWCATDEEYALGPNEFDYYGQGTLVTVSS

Max effect: 0%
B6: CIgG4B3A1(RS) (Fc fusion)
chain 1: GPPCPPCPAPEFLGGPSVFLFPPKPKDTLMISRTPEVTCVVVDVSQEDPEVQFNWYVDGVEVHNAKTKPREEQFNSTYRVVSVLTVLHQDWLNGKEYKCKVSNKGLPSSIEKTISKAKGQPREPQVYTLPPCQEEMTKNQVSLWCLVKGFYPSDIAVEWESNGQPENNYKTTPPVLDSDGSFFLYSRLTVDKSRWQEGNVFSCSVMHEALHNHYTQKSLSLSLGKRSDVQLQESGGGLVQAGGSLRLSCAASGFIFRLAGMSWVRQAPGKGFEWVSGITMDGSTTNYADSVKGRFTISRDNSKNRLYLQMNSLKPEDTAVYYCARGAKGGYNDPRGQGTQVTVS
chain 2: B5 chain 2

Max effect: > 95%
B7: NIgG4B2A1(G4S)2 (Fc fusion)
chain 1: QVQLVESGGGLVQAGGSLRLSCAVFGSTFSNNVADWYRQAPGKQRELVARISASGATREYGDSVKGRFTISRDDAKNTMYLQMNNLKPEDTAVYRCHKIEWEDLSRKDYWGQGTQVTVSGGGGSGGGGSGPPCPPCPAPEFLGGPSVFLFPPKPKDTLMISRTPEVTCVVVDVSQEDPEVQFNWYVDGVEVHNAKTKPREEQFNSTYRVVSVLTVLHQDWLNGKEYKCKVSNKGLPSSIEKTISKAKGQPREPQVYTLPPCQEEMTKNQVSLWCLVKGFYPSDIAVEWESNGQPENNYKTTPPVLDSDGSFFLYSRLTVDKSRWQEGNVFSCSVMHEALHNHYTQKSLSLSLGK
chain 2: EVQLLESGGGLVQPGGSLRLSCAASGFTFGNYDMAWVRQAPGKRPEWVSSIDTGGDITHYADSVKGRFTISRDNAKNTLYLQMNSLRPEDTAVYWCATDEEYALGPNEFDYYGQGTLVTVSSGGGGSGGGGSGPPCPPCPAPEFLGGPSVFLFPPKPKDTLMISRTPEVTCVVVDVSQEDPEVQFNWYVDGVEVHNAKTKPREEQFNSTYRVVSVLTVLHQDWLNGKEYKCKVSNKGLPSSIEKTISKAKGQPREPQVCTLPPSQEEMTKNQVSLSCAVKGFYPSDIAVEWESNGQPENNYKTTPPVLDSDGSFFLVSRLTVDKSRWQEGNVFSCSVMHEALHNHYTQKSLSLSLGK

EC50: 0.7 nM
Max effect: > 95%
B8: CIgG4B2A1(G4S)2 (Fc fusion)
chain 1: GPPCPPCPAPEFLGGPSVFLFPPKPKDTLMISRTPEVTCVVVDVSQEDPEVQFNWYVDGVEVHNAKTKPREEQFNSTYRVVSVLTVLHQDWLNGKEYKCKVSNKGLPSSIEKTISKAKGQPREPQVYTLPPCQEEMTKNQVSLWCLVKGFYPSDIAVEWESNGQPENNYKTTPPVLDSDGSFFLYSRLTVDKSRWQEGNVFSCSVMHEALHNHYTQKSLSLSLGKGGGGSGGGGSQVQLVESGGGLVQAGGSLRLSCAVFGSTFSNNVADWYRQAPGKQRELVARISASGATREYGDSVKGRFTISRDDAKNTMYLQMNNLKPEDTAVYRCHKIEWEDLSRKDYWGQGTQVTVS
chain 2: GPPCPPCPAPEFLGGPSVFLFPPKPKDTLMISRTPEVTCVVVDVSQEDPEVQFNWYVDGVEVHNAKTKPREEQFNSTYRVVSVLTVLHQDWLNGKEYKCKVSNKGLPSSIEKTISKAKGQPREPQVCTLPPSQEEMTKNQVSLSCAVKGFYPSDIAVEWESNGQPENNYKTTPPVLDSDGSFFLVSRLTVDKSRWQEGNVFSCSVMHEALHNHYTQKSLSLSLGKGGGGSGGGGSEVQLLESGGGLVQPGGSLRLSCAASGFTFGNYDMAWVRQAPGKRPEWVSSIDTGGDITHYADSVKGRFTISRDNAKNTLYLQMNSLRPEDTAVYWCATDEEYALGPNEFDYYGQGTLVTVSS
